{
  "source": "patent US20160102323",
  "about": "“A LAGLIDADG HOMING ENDONUCLEASE CLEAVING THE C-C CHEMOKINE RECEPTOR TYPE-5 (CCR5) GENE AND USES THEREOF” (CELLECTIS, published 2016)",
  "binders": {"B1": {"name": "I-OnuI native target (dsDNA)", "DNA 1": "TTTCCACTTATTCAACCTTTTA", "DNA 2": "TAAAAGGTTGAATAAGTGGAAA"}, "B2": {"name": "CCR5_S08 target (dsDNA)", "DNA 1": "CTTCCAGGAATTCTTTGGCCTG", "DNA 2": "CAGGCCAAAGAATTCCTGGAAG"}, "B3": {"name": "CCR5_S02 target (dsDNA)", "DNA 1": "ATGAAGAAGATTCCAGAGAAGA", "DNA 2": "TCTTCTCTGGAATCTTCTTCAT"}},
  "experiment_in_all_cases": "flow; yeast surface display titration; unit as printed (uM)",
  "key": {"I-OnuI (wild type)": {"target": "T1, I-OnuI (wild type) (Ophiostoma novo-ulmi)", "T1 chain": "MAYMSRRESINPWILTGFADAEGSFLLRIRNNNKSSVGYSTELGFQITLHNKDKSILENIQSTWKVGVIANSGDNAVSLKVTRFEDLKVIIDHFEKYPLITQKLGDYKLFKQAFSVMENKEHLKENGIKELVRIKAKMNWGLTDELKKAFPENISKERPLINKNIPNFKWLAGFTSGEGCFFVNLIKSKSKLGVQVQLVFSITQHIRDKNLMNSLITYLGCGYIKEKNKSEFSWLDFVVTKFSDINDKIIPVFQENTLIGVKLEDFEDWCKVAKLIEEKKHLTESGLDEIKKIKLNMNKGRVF", "conditions": "label: fluorescent dye", "procedure": "(§1) The LHEs containing the engineered DNA recognition interfaces for the CCR5_S02 (SEQ ID NO: 3) and CCR5_S08 (SEQ ID NO: 5) targets were tested for affinity, specificity, and toxicity characteristics. Affinity was tested by independently incubating yeast displaying the CCR5_S02_1F5 variant, (SEQ ID NO: 09 encoding SEQ ID NO: 10), and the CCR5_S08_1B6 variant (SEQ ID NO: 11 encoding SEQ ID NO: 12), with DNA substrates containing their target sequences at various concentrations. See FIG. 4 showing the affinity properties of these two variants relative to the wild-type I-OnuI protein. […] Specificity was tested by analyzing the relative ability of each LHE to cleave target sequences containing each of the three alternate DNA base pairs at each position along the substrate. See FIG. 5 illustrating the specificity profile of the CCR5_S02_1F5 and CCR5_S08_1B6 variants. […] Toxicity was analyzed by in vitro transcribing each LHE into mRNA and transfecting primary human T cells by electroporation, followed by flow cytometry analysis of the survival of the cells relative to transfection with a control mRNA encoding a blue fluorescent protein (BFP). See FIG. 6 showing flow cytometry analysis of primary human T cells after treatment with the CCR5_S02_1F5 and CCR5_S08_1B6 variants."}, "[1]": {"target": "T2, CCR5_S08_1B6 I-OnuI variant (artificial (I-OnuI derived))", "T2 chain": "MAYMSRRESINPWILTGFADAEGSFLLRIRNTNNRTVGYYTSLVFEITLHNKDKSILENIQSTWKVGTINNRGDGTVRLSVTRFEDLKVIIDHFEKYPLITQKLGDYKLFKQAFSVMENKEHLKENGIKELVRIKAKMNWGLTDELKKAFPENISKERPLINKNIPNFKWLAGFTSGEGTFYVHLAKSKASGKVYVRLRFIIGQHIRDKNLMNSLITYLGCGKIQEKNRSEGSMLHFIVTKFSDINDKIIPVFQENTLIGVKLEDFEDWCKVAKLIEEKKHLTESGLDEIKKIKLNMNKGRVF", "conditions": "label: Alexa Fluor 647 / biotin in cleavage assay", "procedure": "as §1"}, "[2]": {"target": "T3, CCR5_S02_1F5 I-OnuI variant (artificial (I-OnuI derived))", "T3 chain": "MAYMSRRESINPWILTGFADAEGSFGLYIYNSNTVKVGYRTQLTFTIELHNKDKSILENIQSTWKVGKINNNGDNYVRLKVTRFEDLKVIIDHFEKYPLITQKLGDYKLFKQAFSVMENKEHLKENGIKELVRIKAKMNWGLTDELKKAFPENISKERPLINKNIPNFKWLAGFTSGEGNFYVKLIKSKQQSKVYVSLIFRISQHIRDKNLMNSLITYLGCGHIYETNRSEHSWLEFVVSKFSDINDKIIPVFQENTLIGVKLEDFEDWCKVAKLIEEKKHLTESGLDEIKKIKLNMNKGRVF", "conditions": "label: Alexa Fluor 647 / biotin in cleavage assay", "procedure": "as §1"}},
  "data": [
    {"binder": "B1", "values": [
      {"measurement": "Kd", "setting": "I-OnuI (wild type)", "value": "~80", "unit": "µM"}
    ]},
    {"binder": "B2", "values": [
      {"measurement": "Kd", "setting": "[1]", "value": "~20", "unit": "µM"}
    ]},
    {"binder": "B3", "values": [
      {"measurement": "Kd", "setting": "[2]", "value": "~35", "unit": "µM"}
    ]}
  ]
}
